How the values were obtained:
[1] = target: the molecule itself; assay: native gel or EMSA; clear native PAGE (6% or 8% Tris-glycine, 4 °C) of 30 μg mitochondrial extract, immunoblot with anti-TRAP1; cells also treated with hypoxia, oligomycin, rotenone, antimycin A or LDHi, or grown on different carbon sources
[2] = target: the molecule itself; assay: affinity purification with mass spectrometry + native gel or EMSA; glutathione bead pull-down of TRAP1-GST from 1 mg mitochondrial lysate of transfected HEK293T cells, elution with 80 mM glutathione, 6% clear native gel, the stained complex band excised and analysed by LC/MS/MS; cutoff 11 unique peptides, GST alone as control
[3] = target: the molecule itself; assay: native gel or EMSA; blue native PAGE (3-12%) of purified recombinant TRAP1 (20 and 5 ng), immunoblot with anti-TRAP1

B1: endogenous TRAP1 (natural protein, human (endogenous in HEK293T), UniProt Q12931 60-704, looked up)
chain: STQTAEDKEEPLHSIISSTESVQGSTSKHEFQAETKKLLDIVARSLYSEKEVFIRELISNASDALEKLRHKLVSDGQALPEMEIHLQTNAEKGTITIQDTGIGMTQEELVSNLGTIARSGSKAFLDALQNQAEASSKIIGQFGVGFYSAFMVADRVEVYSRSAAPGSLGYQWLSDGSGVFEIAEASGVRTGTKIIIHLKSDCKEFSSEARVRDVVTKYSNFVSFPLYLNGRRMNTLQAIWMMDPKDVREWQHEEFYRYVAQAHDKPRYTLHYKTDAPLNIRSIFYVPDMKPSMFDVSRELGSSVALYSRKVLIQTKATDILPKWLRFIRGVVDSEDIPLNLSRELLQESALIRKLRDVLQQRLIKFFIDQSKKDAEKYAKFFEDYGLFMREGIVTATEQEVKEDIAKLLRYESSALPSGQLTSLSEYASRMRAGTRNIYYLCAPNRHLAEHSPYYEAMKKKDTEVLFCFEQFDELTLLHLREFDKKKLISVETDIVVDHYKEEKFEDRSPAAECLSEKETEELMAWMRNVLGSRVTNVKVTLRLDTHPAMVTVLEMGAARHFLRMQQLAKTQEERAQLLQPTLEINPRHALIKKLNQLRASEPGLAQLLVDQIYENAMIAAGLVDDPRAMVGRLNELLVKALERH
notes: also called endogenous mitochondrial TRAP1; wild-type (WT) endogenous TRAP1; source: endogenous, mitochondrial extracts of HEK293T cells (also MCF-7, MDA-MB-134, PC3 and HCT116 cells)
[1]
  stoichiometry N: 4

B2: TRAP1-GST fusion protein (natural protein, human, UniProt Q12931 60-704, looked up)
chain: STQTAEDKEEPLHSIISSTESVQGSTSKHEFQAETKKLLDIVARSLYSEKEVFIRELISNASDALEKLRHKLVSDGQALPEMEIHLQTNAEKGTITIQDTGIGMTQEELVSNLGTIARSGSKAFLDALQNQAEASSKIIGQFGVGFYSAFMVADRVEVYSRSAAPGSLGYQWLSDGSGVFEIAEASGVRTGTKIIIHLKSDCKEFSSEARVRDVVTKYSNFVSFPLYLNGRRMNTLQAIWMMDPKDVREWQHEEFYRYVAQAHDKPRYTLHYKTDAPLNIRSIFYVPDMKPSMFDVSRELGSSVALYSRKVLIQTKATDILPKWLRFIRGVVDSEDIPLNLSRELLQESALIRKLRDVLQQRLIKFFIDQSKKDAEKYAKFFEDYGLFMREGIVTATEQEVKEDIAKLLRYESSALPSGQLTSLSEYASRMRAGTRNIYYLCAPNRHLAEHSPYYEAMKKKDTEVLFCFEQFDELTLLHLREFDKKKLISVETDIVVDHYKEEKFEDRSPAAECLSEKETEELMAWMRNVLGSRVTNVKVTLRLDTHPAMVTVLEMGAARHFLRMQQLAKTQEERAQLLQPTLEINPRHALIKKLNQLRASEPGLAQLLVDQIYENAMIAAGLVDDPRAMVGRLNELLVKALERH
notes: TRAP1, human; the MTS is cleaved off upon import; Called one of the 'full-length TRAP1 proteins with different tags'; source: HEK293T, transfected, pulled down from mitochondrial lysate on glutathione beads and eluted with glutathione; not shown: GST, C-terminal, kept
[2]
  stoichiometry N: 4

B3: recombinant human TRAP1 (natural protein, UniProt Q12931 60-704, looked up)
chain: STQTAEDKEEPLHSIISSTESVQGSTSKHEFQAETKKLLDIVARSLYSEKEVFIRELISNASDALEKLRHKLVSDGQALPEMEIHLQTNAEKGTITIQDTGIGMTQEELVSNLGTIARSGSKAFLDALQNQAEASSKIIGQFGVGFYSAFMVADRVEVYSRSAAPGSLGYQWLSDGSGVFEIAEASGVRTGTKIIIHLKSDCKEFSSEARVRDVVTKYSNFVSFPLYLNGRRMNTLQAIWMMDPKDVREWQHEEFYRYVAQAHDKPRYTLHYKTDAPLNIRSIFYVPDMKPSMFDVSRELGSSVALYSRKVLIQTKATDILPKWLRFIRGVVDSEDIPLNLSRELLQESALIRKLRDVLQQRLIKFFIDQSKKDAEKYAKFFEDYGLFMREGIVTATEQEVKEDIAKLLRYESSALPSGQLTSLSEYASRMRAGTRNIYYLCAPNRHLAEHSPYYEAMKKKDTEVLFCFEQFDELTLLHLREFDKKKLISVETDIVVDHYKEEKFEDRSPAAECLSEKETEELMAWMRNVLGSRVTNVKVTLRLDTHPAMVTVLEMGAARHFLRMQQLAKTQEERAQLLQPTLEINPRHALIKKLNQLRASEPGLAQLLVDQIYENAMIAAGLVDDPRAMVGRLNELLVKALERH
notes: TRAP1, human, recombinant; probably without the MTS (surmise); Same material used for blue native PAGE and cryo-EM; also called purified recombinant TRAP1
[3]
  stoichiometry N: 4

Source: paper PMC6986101, “The mitochondrial HSP90 paralog TRAP1 forms an OXPHOS-regulated tetramer and is involved in mitochondrial metabolic homeostasis” (BMC Biology, 2020)
